For experiment [1], the target named is T1, BA46 antigen of the human milk fat globule (HMFG) (human, UniProt Q08431 24-387, limits assumed).
T1 construct: also called 46 kDa HMFG antigen; human milk fat globule preparation
T1 sequence (looked up): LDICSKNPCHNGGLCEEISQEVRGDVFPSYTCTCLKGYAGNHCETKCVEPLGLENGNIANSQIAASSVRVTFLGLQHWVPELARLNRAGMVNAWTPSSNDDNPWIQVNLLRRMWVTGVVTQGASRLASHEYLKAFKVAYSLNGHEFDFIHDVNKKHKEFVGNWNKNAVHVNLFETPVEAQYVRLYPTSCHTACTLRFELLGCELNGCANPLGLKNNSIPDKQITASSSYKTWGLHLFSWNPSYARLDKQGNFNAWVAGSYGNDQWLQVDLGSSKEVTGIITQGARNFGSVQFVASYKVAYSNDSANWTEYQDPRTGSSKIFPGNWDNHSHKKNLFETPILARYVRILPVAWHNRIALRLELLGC
As to the kind of experiment: competition RIA on plate-bound HMFG; reciprocal of the concentration of unlabeled antibody giving 50% binding. Here is the method: The protocol for the assay was as follows.
Microtiter plates (Dynatech, Chantilly, Va.) were prepared with HMFG according to standard techniques (as described by Ceriani et al., in "Monoclonal Antibodies and Functional Cell Lines" (T. J. McKern et al. eds.), pp. 398-402, New York, Plenum Press, 1984). To each well was added 25 µl ^125I-Mc3 in RIA buffer (10% bovine calf serum, 0.3% TRITON™ X-100, 0.05% sodium azide pH 7.4, in phosphate buffered saline), and competed with 25 µl of either unlabeled murine antibody or murine-human chimeric antibody in RIA buffer at final concentrations in the nanomolar range.
Iodinations were performed with ^125I (17 Ci/mg, Nordion International Inc., Kanata, Ontario, Canada). 50 µg monoclonal antibody Mc3 was labeled (at a specific activity of ~10 mCi/mg) using the chloramine T method as described by Ceriani, R. L., and Blank, E. W. (1988) *Cancer Res.* 48: 4664-4672.

Experiment [2] concerns the target T1, BA46 antigen of the human milk fat …. In words: affinity as summarised in the description; same assay as Example 10. Here is the method: (§1) Binding studies were conducted as outlined earlier. Briefly, microliter plates were prepared using successive layers of methylated BSA (bovine serum albumin), glutaraldehyde, and a preparation of delipidated HMFG (Ceriani R. L. et al. (1977) PNAS (USA) 74:582-586). Each well was coated with 100 ng of HMFG. Competition experiments were conducted by adding to each well a standard amount of ^125I-MuMc3 and an appropriate dilution of unlabeled MuMc3 or HuMc3 in RIA buffer (10% bovine calf serum, 0.3 TRITON X-100™), 0.05% sodium azide pH 7.4, in PBS). For the determination of affinity constants, each antibody was tested in competition against itself.

Experiment [3] shares this target. As to the kind of experiment: competition RIA on plate-bound delipidated HMFG, each antibody tested against itself; reciprocal of the concentration giving 50% maximal binding. As to the method: as §1

B1: murine-human chimeric Mc3 antibody (ChMc3) (antibody, V domains shown)
VH: EVQLQQSGPELVKPGASMKISCEASGYSFTGYTMHWVKQSHGMNLEWIGLINPYNGGTVYNQKFQDKATLTVDKSSGTAYMELLSLTSEDSAVYFCARRWRYTMDYWGQGTSVTVSS
VL: DIVMTQSHKFMSTSEGDWVSITCKASQDVSIGVAWYQQKPGQSPKLLIYSASSRYTGVPDRFSGSGSGTDFTFTISSVQAEDLAVYYCQQHYTSPFTFGSGTNLEIK
notes: also called Chimeric antibody
With B1, the Ka in experiment [1] was 5e+08 M⁻¹.

B2: murine monoclonal antibody Mc3 (antibody, V domains shown)
VH: B1 VH
VL: B1 VL
notes: Whole murine monoclonal antibody from the Mc3 hybridoma, kappa light chain; As the tracer it was labelled with 125I by the chloramine T method; also called MuMc3; Mc3 murine antibody
B2 displayed a Ka in experiment [1] of 3e+08 M⁻¹.

B3: humanized Mc3 antibody (HuMc3) (antibody, human IgG1, V domains shown)
VH: EVQLVQSGAEVKKPGASVKVSCKASGYSFTGYTMHWVKQSPGMNLEWIGLINPYNGGTVYNQKFQDKATLTVDKSTSTAYMELSSLRSEDTAVYFCARRWRYTMDYWGQGTLVTVSS
VL: DIVMTQSPDSLAVSLGERATITCKASQDVSIGVAWYQQKPGQSPKLLIYSASSRYTGVPDRFSGSGSGTDFTLTISSLQAEDVAVYYCQQHYTSPFTFGSGTKVEIK
notes: Humanized variable regions cloned into pAH4604 (human gamma 1 constant region) and pAG4622 (human kappa constant region), so a human IgG1 kappa; also called HuMc3v2
Regarding B3, the Ka in experiment [2] was 6.2e+08 M⁻¹; in experiment [3], 6e+08 M⁻¹.

(Values after patent US7390635 (CANCER RESEARCH INSTITUTE OF CONTRA COSTA, dated 2008).)
